In patent US20240189352A1 (MAX DELBR CK CENTRUM F R MOLEKULARE MEDIZIN IN DER …, published 2024):

What was measured:
[1] = molecular target: HLA-A2-restricted GNAZ peptide … presented by HLA-A2 (human); assay: cell-based or functional assay
[2] = molecular target: wild-type RAC1/2 peptide presented by HLA-A2 (peptide-loaded T2 cells) (human); assay: cell-based or functional assay

IFNγ production of T001 TCR-transduced T cells upon coculture with peptide-loaded T2 cells (relative to PMA and ionomycin maximum) [1] | IFNγ production by TCR-transduced T cells (relative to unmodified RAC2^P29L) [2] | Binder
~30% |  | RAC2-T001 TCR (TCR, V domains shown) V domain 1: GENVEQHPSTLSVQEGDSAVIKCTYSDSASNYFPWYKQELGKGPQLIIDIRSNVGEKKDQRIAVTLNKTAKHFSLHITETQPEDSAVYFCAASMGNAGNMLTFGGGTRLMVKP V domain 2: EPEVTQTPSHQVTQMGQEVILRCVPISNHLYFYWYRQILGQKVEFLVSFYNNEISEKSEIFDDQFSVERPDGSNFTLKIRSTKLEDSAMYFCASSETSGASYEQYFGPGTRLTVT
 | 35% | RAC2-T002 TCR (TCR, V domains shown) V domain 1: AQSVTQLGSHVSVSEGALVLLRCNYSSSVPPYLFWYVQYPNQGLQLLLKYTTGATLVKGINGFEAEFKKSETSFHLTKPSAHMSDAAEYFCAVGANNLFFGTGTRLTVIP V domain 2: EPEVTQTPSHQVTQMGQEVILRCVPISNHLYFYWYRQILGQKVEFLVSFYNNEISEKSEIFDDQFSVERPDGSNFTLKIRSTKLEDSAMYFCASSEWRGSSYNEQFFGPGTRLTVL
